In this test the target is eEF-2 (Homo sapiens, UniProt P13639). Put plainly: kinase inhibition assay.

B1: eEF-2K 562-725 (protein)
chain: GELEAIVGLGLMYSQLPHHILADVSLKETEENKTKGFDYLLKAAEAGDRQSMILVARAFDSGQNLSPDRCQDWLEALHWYNTALEMTDCDEGGEYDGMQDEPRYMMLAREAEMLFTGGYGLEKDPQRSGDLYTQAAEAAMEAMKGRLANQYYQKAEEAWAQMEE
B1: the Ki is about 9 µM.

The record behind these values is publication PMC6599559 (2019).
